Reference: doi:10.1101/2025.11.18.25340499 (medRxiv, 2025)

Key:
[1] = biological target: T1, MuSK Bait (Homo sapiens (species of MuSK not …, UniProt O15146)); test: AlphaScreen or HTRF
[2] = biological target: T1, MuSK Bait; test: SPR

| Binder | binding result [1] | binding result [2] |
| --- | --- | --- |
| MuSK1B (antibody, V domains shown) VH: EVQLVEWGAGLLKPSETLSLTCAVYGGSFSGDYWWTWIRQPPGKGLEWIGEIDHTGNTNYNPSLKSRLTLSVDMSKNHFSLKLTSVTAADTALYFCARQEGLGYYDSWGQGTLVTVSS VL: SYELTQSPSVSVSPGQTANITCSGDKLGDRYASWYQQKPAQSPVLVIYQDDRRPSGIPERFSGSNSGNTATLTISGTQGMDEADYYCQAWDGTTVFGGGTKLTVL | binds | – |
| MuSK1A (antibody, V domains shown) VH: QVQLVQSGAEVKKPGASVKVSCKTSGYTFNNYDINWVRQAAGQGLEWMGWMNPYSGNTGYAQKFQGRVTMTRNISITTVYMELSSLRSEDTAVYYCAREVRGDTGYGGGSDYWGQGTLVTVSS VL: SYELTQPPSVSLSPGQTATITCSGDKLDDNYVCWYQQKPGQSPVLVIYQDTMRPSGIPERFSGSNSGNIATLTISGTQAVDEADYYCQAWDGSTVVFGGGTRLTVL | binds | – |
| 13-3B5 (antibody, V domains shown) VH: QVQLVQSGAVVAKPGASVQVSCKTSGYTFTGQYLHWVRQAPGQGLEWIGWINPSSGVTKFAEKFEGRATMTRDTSITTAYIDLRSLRSDDTATYYCATLSLGVYYVGMVAWGQGTLVTVSS VL: SYELTQPPSVSVSPGQTATITCSGDGLAQQHVYWFQQRPGQAPLLIIYKDIERPSGIPERFSGSSSGTTAMLTISGVQAEDEADYYCQSGDRTATSVLFGGGTKMTVL | – | binds |
| 11-3F6 (antibody, V domains shown) VH: EVQLVESGGGLVKPGGSLRLSCAASGFTFSSYTMDWVRQAPGKGLEWVSSIGSNGDYIYYADSVRGRFTISRDNAKNSLYLQMNSLRPDDTADYYCARGQLAVAGTHFDYWGRGSLVTVSS VL: DIQMTQSPSSLSASVGDRVTISCRASQKVNKYVNWYQQTPGKAPRLLIYAASTLQSGVPSRFSGSGSGANFTLTISGLQPEDFAIYFCQQSYSPLCTFGQGTKLEIK | binds | – |
